Measured values taken from patent US20240197877A1 (published 2024).
Residue numbers refer to the chain shown, from its start. Values belong to the binder of their own block, whether it stands above or below them.

Target: T1, MYO1G (HA-2 SNP; MYO1G(M) variant) peptide on HLA-A*02:01 (human)
T1 peptide: YIGEVLVSM
Assay: multimer staining

binding result: no recognition
B1: HA2-MJ13-SP43 (TCR, V domains shown)
Valpha: QKEVEQNSGPLSVPEGAIASLNCTYSDRGSQSFFWYRQYSGKSPELIMFIYSNGDKEDGRFTAQLNKASQYVSLLIRDSQPSDSATYLCAVKGAGYSTLTFGKGTMLLVSP
Vbeta: NAGVTQTPKFQVLKTGQSMTLQCAQDMNHEYMSWYRQDPGMGLRLIHYSVGAGITDQGEVPNGYNVSRSTTEDFPLRLLSAAPSQTSVYFCASSDGGALAYFGPGTRLTVL

binding result: no recognition
B2: HA2-MJ14-SP4 (TCR, V domains shown)
Valpha: B1 Valpha with K92R, G93R, A94S
Vbeta: NAGVTQTPKFQVLKTGQSMTLQCAQDMNHEYMSWYRQDPGMGLRLIHYSVGAGITDQGEVPNGYNVSRSTTEDFPLRLLSAAPSQTSVYFCASSLGAEAFFGQGTRLTVV
